The values below come from patent US20220064294A1.

In the test the target is mouse TIGIT, full length, on CHO-K1 cells (mouse) (UniProt P86176). Put plainly: flow cytometry, CHO-K1 cells transiently transfected with mouse TIGIT; target taken from the legend paragraph 32 and from paragraph 286 (FIG. 4A = mouse TIGIT); paragraph 286 however names GNE10A7, not G1GD7, as the control for mouse TIGIT.
Chain of mouse TIGIT, full length, on CHO-K1 cells (mouse) (P86176 29-249 limits assumed): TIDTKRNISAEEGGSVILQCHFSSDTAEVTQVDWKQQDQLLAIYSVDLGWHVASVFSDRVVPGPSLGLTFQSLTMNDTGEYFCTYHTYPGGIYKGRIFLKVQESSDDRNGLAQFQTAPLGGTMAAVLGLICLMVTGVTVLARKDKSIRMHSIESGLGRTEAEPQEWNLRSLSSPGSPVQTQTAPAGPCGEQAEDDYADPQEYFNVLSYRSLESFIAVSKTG

Take eBioscience G1GD7 (antibody): the EC50 (read off the curve) (in general, the midpoint of the concentration-response curve) stood at 0.8 nM.
